# Data as given in patent US20080193964A1, “Compositions and methods for regulation of calcium-dependent signaling in brain” (priority 2002, published 2008).
# Positions count from the first letter of the chain named.
# B1: Ser^55 to alanine in DARPP-21: DARPP-21 mutant with Ala substitution for Ser^55, LexA fusion in yeast (protein, UniProt Q9UBL0 2-812, looked up, variant S55A)
# cAMP-regulated phosphoprotein …: SEQGDLNQAIAEEGGTEQETATPENGIVKSESLDEEEKLELQRRLEAQNQERRKAKSGAGKGKLTRSLAVCEESSARPGGESLQDQESIHLQLSSFSSLQEEDKSRKDDSEREKEKDKNKDKTSEKPKIRMLSKDCSQEYTDSTGIDLHEFLINTLKNNSRDRMILLKMEQEIIDFIADNNNHYKKFPQMSSYQRMLVHRVAAYFGLDHNVDQTGKSVIINKTSSTRIPEQRFCEHLKDEKGEESQKRFILKRDNSSIDKEDNQQNRMHPFRDDRRSKSIEEREEEYQRVRERIFAHDSVCSQESLFVENSRLLEDSNICNETYKKRQLFRGNRDGSGRTSGSRQSSSENELKWSDHQRAWSSTDSDSSNRNLKPAMTKTASFGGITVLTRGDSTSSTRSTGKLSKAGSESSSSAGSSGSLSRTHPPLQSTPLVSGVAAGSPGCVPYPENGIGGQVAPSSTSYILLPLEAATGIPPGSILLNPHTGQPFVNPDGTPAIYNPPTSQQPLRSAMVGQSQQQPPQQQPSPQPQQQVQPPQPQMAGPLVTQRDDVATQFGQMTLSRQSSGETPEPPSGPVYPSSLMPQPAQQPSYVIASTGQQLPTGGFSGSGPPISQQVLQPPPSPQGFVQQPPPAQMPVYYYPSGQYPTSTTQQYRPMAPVQYNAQRSQQMPQAAQQAGYQPVLSGQQGFQGLIGVQQPPQSQNVINNQQGTPVQSVMVSYPTMSSYQVPMTQGSQGLPQQSYQQPIMLPNQAGQGSLPATGMPVYCNVTPPTPQNNLRLIGPHCPSSTVPVMSASCRTNCASMSNAGWQVKF
# modifications: LexA fusion
# notes: DARPP-21 mutant with Ala substitution for Ser^55, LexA fusion in yeast
# B2: DARPP-21: neuronal 21 kDa dopamine- and cAMP-regulated phosphoprotein (protein, UniProt Q9UBL0 2-812, looked up)
# cAMP-regulated phosphoprotein …: B1 cAMP-regulated phosphoprotein … with A55S
# B3: Phosphorylated DARPP-21: DARPP-21 phosphorylated in vitro with the catalytic subunit of PKA (protein, UniProt Q9UBL0 2-812, looked up)
# cAMP-regulated phosphoprotein …: B1 cAMP-regulated phosphoprotein … with A55S
# modifications: phospho-Ser55
# notes: DARPP-21 phosphorylated in vitro with the catalytic subunit of PKA
# B4: unphosphorylated DARPP-21: neuronal 21 kDa dopamine- and cAMP-regulated phosphoprotein, not phosphorylated (protein, UniProt Q9UBL0 2-812, looked up)
# cAMP-regulated phosphoprotein …: B1 cAMP-regulated phosphoprotein … with A55S
# Columns and labels:
# DARPP-21 phosphorylation = conditions: treatment of mice; cited from earlier work
# calmodulin [1] = target: T1, calmodulin (Rattus norvegicus, UniProt P0DP29); experiment: Yeast two-hybrid protein-protein binding assay; conditions: yeast strain EGY48; FIG. 2
# T1 construct: host or cells: yeast strain EGY48
# Procedure: Protein-protein binding assays were performed in a yeast two-hybrid system using the DupLexA system (Origene Technologies, Rockville, Md.) in yeast strain EGY48. To generate a fusion protein of LexA and DARPP-21, DARPP-21 cDNA was subcloned into EcoRI-XhoI sites of pEG202 bait vector. Prey vector contained oligo-dT primed rat brain library (Origene Technologies, Rockville, Md.) attached to the B42 acid blob domain and governed by a gal-1 promoter.
# Yeast were sequentially transformed with the bait, pSH18-34 lacZ-harboring prey cDNA library-containing plasmids using the lithium acetate protocol. Efficiency of transformation was estimated to be 10^6 with a library complexity of 4×10^6 individual clones. Positive clones appeared 3 to 7 days after transformation. Bait-prey interaction was assessed by intensity of growth on a (gal)(-his, -trp, -ura, -leu) medium. Specificity of the interaction was verified by X-gal staining and mating assay (Origene Technologies, Rockville, Md.).
# To confirm calmodulin-DARPP-21 interactions and compare calmodulin binding to DARPP-21 mutants, EGY48 yeast cells were transformed with the bait, prey and lacZ reporter plasmids and plated onto (glu)(-his, -trp, -ura) plates. Four days later, selected colonies were transferred into a liquid (+raf)(-his, -trp, -ura) medium and grown overnight at 30 C with vigorous shaking. […]
# calmodulin [2] = target: T2, calmodulin (Bos taurus, UniProt P62157); experiment: Affinity chromatography using calmodulin-Sepharose; format: binding; conditions: 0.5 mM CaCl2 buffer versus 1 mM EGTA buffer; FIG. 5
# T2 construct: purchased Amersham Pharmacia Biotech
# Procedure: DARPP-21 (0.5 ml of 0.1 mg/ml) was applied to 0.5 ml of 1 mg/ml calmodulin-Sepharose (Amersham Pharmacia Biotech, Piscataway, N.J.) in buffer B (100 mM NaCl, 20 mM Tris pH 7.5, 1 mM MgCl2, 0.5 mM CaCl2, 1 mM DTT) or buffer C containing 1 mM EGTA instead of 0.5 mM CaCl2. Beads were washed with several volumes of buffer D containing 300 mM NaCl and 20 mM Tris pH 7.5 and bound proteins were eluted with 10 mM EGTA/20 mM Tris pH 7.5.
# calcineurin = experiment: In vitro inhibition of calcineurin phosphatase activity; format: biochemical
# Procedure: (§1) For preparations of phosphorylated DARPP-21, the protein was phosphorylated in vitro using [γ-^32P]ATP with the catalytic subunit of PKA as described (Caporaso et al. 2000. Neuropharmacology 39:1636-1643). The stoichiometry of phosphorylation was determined to be 95% for DARPP-21.
# (§2) DARPP-21 was phosphorylated as described in Section 6.1. In vitro inhibition studies on the kinase and phosphatase activities of CaMKI and calcineurin, respectively, were performed according to standard techniques in the art.
# CaMKI = experiment: In vitro inhibition of CaMKI kinase activity; format: biochemical
# Procedure: as §1, §2
# [3] = same concentration as phosphorylated DARPP-21
molecule,measurement,setting,value
CN[C@@H](C)Cc1ccccc1 [methamphetamine],DARPP-21 phosphorylation in vivo,DARPP-21 phosphorylation,increased
B1,interaction with calmodulin in yeast,calmodulin [1],completely inhibited the interaction with calmodulin
B2,binding to calmodulin-Sepharose,calmodulin [2],detected only in the calcium-equilibrated column
B3,IC50,"calcineurin; in vitro, FIG. 7",1000 nM
same,IC50,"CaMKI; in vitro, FIG. 6",1200 nM
B4,effect on calcineurin activity,calcineurin; [3],no effect
same,effect on CaMKI activity,CaMKI; [3],no effect
